Experimental data: the supplement of paper PMC9233669
Fewer inactive variants are shown than the library holds.

Columns and labels:
biotinyl-Phe-oxazolone = test: self-aminoacylation, catalytic enhancement (BFO) (fold over background); higher = more active; k-Seq, kA / k0A0; sequences stand for … in GGGAAUGGAUCCACAUCUACGAAUUC…UUCACUGCAGACUUGACGAAGCUG
Method in brief: (§1)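 Catalytic enhancement equals the median kA over the uncatalyzed rate, the latter read from the low-activity peak of a bimodal Gaussian fit. Values of kA came from fitting each sequence's fraction reacted to a pseudo-first-order model, with 1000 bootstraps. Reacted RNA was captured with streptavidin and quantified by triplicate qPCR and Illumina sequencing after 90 minutes at room temperature with 2–1250 μM biotinyl-aminoacyl-oxazolone and 0.43 μM mutagenized RNA pools bearing a 21-nt variable region.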

biotinyl-Ile-oxazolone = test: self-aminoacylation, catalytic enhancement (BIO) (fold over background); higher = more active; k-Seq, kA / k0A0; sequences stand for … in GGGAAUGGAUCCACAUCUACGAAUUC…UUCACUGCAGACUUGACGAAGCUG
Method in brief: as §1

biotinyl-Met-oxazolone = test: self-aminoacylation, catalytic enhancement (BMO) (fold over background); higher = more active; k-Seq, kA / k0A0; sequences stand for … in GGGAAUGGAUCCACAUCUACGAAUUC…UUCACUGCAGACUUGACGAAGCUG
Method in brief: as §1

biotinyl-Val-oxazolone = test: self-aminoacylation, catalytic enhancement (BVO) (fold over background); higher = more active; k-Seq, kA / k0A0; sequences stand for … in GGGAAUGGAUCCACAUCUACGAAUUC…UUCACUGCAGACUUGACGAAGCUG
Method in brief: as §1

biotinyl-Leu-oxazolone = test: self-aminoacylation, catalytic enhancement (BLO) (fold over background); higher = more active; k-Seq, kA / k0A0; sequences stand for … in GGGAAUGGAUCCACAUCUACGAAUUC…UUCACUGCAGACUUGACGAAGCUG
Method in brief: as §1

biotinyl-Trp-oxazolone = test: self-aminoacylation, catalytic enhancement (BWO) (fold over background); higher = more active; k-Seq, kA / k0A0; sequences stand for … in GGGAAUGGAUCCACAUCUACGAAUUC…UUCACUGCAGACUUGACGAAGCUG
Method in brief: as §1

Sequence	self-aminoacylation (biotinyl-Phe-oxazolone)	self-aminoacylation (biotinyl-Ile-oxazolone)	self-aminoacylation (biotinyl-Met-oxazolone)	self-aminoacylation (biotinyl-Val-oxazolone)	self-aminoacylation (biotinyl-Leu-oxazolone)	self-aminoacylation (biotinyl-Trp-oxazolone)
AUUCACCUAGGUCAUAGGUUG [Fam2.2 aminoacylation ribozyme variant]	0.595	0.63	0.846	0.77	0.9	0.441
AUUCACCUAGGUCAUCAAGUG [Fam2.2 aminoacylation ribozyme variant]	1.21	0.747	0.662	0.711	0.756	0.347
AUUCACCUAGGUCAUCAGGAG [Fam2.2 aminoacylation ribozyme variant]	0.931	0.957	0.951	1.09	1.01	0.779
AUUCACCUAGGUCAUCAGGGG [Fam2.2 aminoacylation ribozyme variant]	0.986	1.22	0.955	1.22	1.32	0.985
AUUCACCUAGGUCAUCAGGUG [Fam2.2 aminoacylation ribozyme variant]	1.31	1.19	1.39	1.3	1.56	1.39
AUUCACCUAGGUCAUCCAGUG [Fam2.2 aminoacylation ribozyme variant]	52	5.19	7.78	4.21	9.68	6.96
AUUCACCUAGGUCAUCGCGGG [Fam2.2 aminoacylation ribozyme variant]	10.7	2.97	3.25	2.47	4.05	2.25
AUUCACCUAGGUCAUCGGAGG [Fam2.2 aminoacylation ribozyme variant]	0.759	0.829	0.898	1.03	0.991	0.621
AUUCACCUAGGUCAUCGGAUA [Fam2.2 aminoacylation ribozyme variant]	0.865	0.894	0.754	1.2	0.877	0.615
AUUCACCUAGGUCAUCGGCUU [Fam2.2 aminoacylation ribozyme variant]	6.3	2.1	2.26	2.02	2.3	3.27
AUUCACCUAGGUCAUCGGGAU [Fam2.2 aminoacylation ribozyme variant]	18.7	3.59	6.11	3.4	9.22	5.12
AUUCACCUAGGUCAUCGGGCA [Fam2.2 aminoacylation ribozyme variant]	3.27	3.5	3.67	3.24	5.57	2.81
AUUCACCUAGGUCAUCGGGCG [Fam2.2 aminoacylation ribozyme variant]	13.8	4.76	7.58	4.82	10.3	5.66
AUUCACCUAGGUCAUCGGGCU [Fam2.2 aminoacylation ribozyme variant]	37.6	5.03	8.6	4.55	12.4	6.09
AUUCACCUAGGUCAUCGGGGG [Fam2.2 aminoacylation ribozyme variant]	32.6	4.62	6.96	4.28	9.91	5.49
AUUCACCUAGGUCAUCGGUGG [Fam2.2 aminoacylation ribozyme variant]	4.26	1.5	1.97	1.52	1.85	1.81
AUUCACCUAGGUCAUCGGUUA [Fam2.2 aminoacylation ribozyme variant]	1.09	1.11	1.28	1.17	1.27	1.35
AUUCACCUAGGUCAUCGUGUU [Fam2.2 aminoacylation ribozyme variant]	0.729	0.899	0.887	0.73	0.905	1.62
AUUCACCUAGGUCAUCUUGUG [Fam2.2 aminoacylation ribozyme variant]	1.37	0.835	1.13	1.04	1.18	0.594
AUUCACCUAGGUCAUGAGGUG [Fam2.2 aminoacylation ribozyme variant]	3.32	1.94	2.41	1.81	3.15	1.75
AUUCACCUAGGUCAUGGCGUG [Fam2.2 aminoacylation ribozyme variant]	59.8	5.83	9.82	5.9	13.2	8.17
AUUCACCUAGGUCAUGGGGCG [Fam2.2 aminoacylation ribozyme variant]	1.37	2.18	2.3	2.27	3.14	2.15
AUUCACCUAGGUCAUGGGGUC [Fam2.2 aminoacylation ribozyme variant]	1.36	1.32	1.39	1.4	1.2	1
AUUCACCUAGGUCAUGGGGUG [Fam2.2 aminoacylation ribozyme variant]	39.9	3.7	5.76	3.56	7.33	5.27
AUUCACCUAGGUCAUGGGGUU [Fam2.2 aminoacylation ribozyme variant]	0.983	1.5	1.68	1.58	1.52	1.51
AUUCACCUAGGUCAUUGAGUG [Fam2.2 aminoacylation ribozyme variant]	12.3	2.6	3.53	2.3	4.17	3.89

Sequence	self-aminoacylation (biotinyl-Phe-oxazolone)	self-aminoacylation (biotinyl-Ile-oxazolone)	self-aminoacylation (biotinyl-Met-oxazolone)	self-aminoacylation (biotinyl-Val-oxazolone)	self-aminoacylation (biotinyl-Leu-oxazolone)	self-aminoacylation (biotinyl-Trp-oxazolone)
AUUCACCUAGGUCCUAGGGUG [Fam2.2 aminoacylation ribozyme variant]	4.72	2.06	2.55	1.75	4.26	3.15
AUUCACCUAGGUCCUCGAGUG [Fam2.2 aminoacylation ribozyme variant]	3.5	1.26	1.36	1.38	2.12	1.18
AUUCACCUAGGUCCUCGGGCG [Fam2.2 aminoacylation ribozyme variant]	35.3	3.37	4.65	2.7	4.27	3.17
AUUCACCUAGGUCGUCGAGUG [Fam2.2 aminoacylation ribozyme variant]	0.746	0.661	0.743	0.878	0.851	0.529
AUUCACCUAGGUCGUCGCGUG [Fam2.2 aminoacylation ribozyme variant]	39	3.52	5.72	3.84	7.92	5.27
AUUCACCUAGGUCUUAGGGUG [Fam2.2 aminoacylation ribozyme variant]	32.2	3.08	5.1	2.85	7.06	4.24
AUUCACCUAGGUCUUCGGGUC [Fam2.2 aminoacylation ribozyme variant]	3.66	1.65	1.33	1.68	2.37	1.79
AUUCACCUAGGUCUUCGGGUU [Fam2.2 aminoacylation ribozyme variant]	13.8	2.82	3.09	2.98	3.66	2.94
AUUCACCUAGGUCUUUGGGUG [Fam2.2 aminoacylation ribozyme variant]	56.1	4.28	6.91	4.09	9.98	6.83
AUUCACCUAGGUGAUCGGGUA [Fam2.2 aminoacylation ribozyme variant]	9.83	2.67	3.18	2.48	3.14	3.59
AUUCACCUAGGUGAUCGGGUG [Fam2.2 aminoacylation ribozyme variant]	16.6	2.52	2.81	2.62	3.27	3.34
AUUCACCUAGGUUAACGGGUG [Fam2.2 aminoacylation ribozyme variant]	24.8	2	2.55	2.1	3.22	2.83
AUUCACCUAGGUUAUCGGAUG [Fam2.2 aminoacylation ribozyme variant]	0.355	0.661	0.712	0.986	0.673	0.723
AUUCACCUAGUACAUCGGGUG [Fam2.2 aminoacylation ribozyme variant]	10.4	1.55	2.21	1.65	2.71	2.21
AUUCACCUAGUGCAUCGGGUG [Fam2.2 aminoacylation ribozyme variant]	5.22	1.35	1.62	1.63	2.12	1.17
AUUCACCUAGUUCACCGGGUG [Fam2.2 aminoacylation ribozyme variant]	15.6	2.37	3.25	2.41	3.58	3.92
AUUCACCUAGUUCAUCGCGUG [Fam2.2 aminoacylation ribozyme variant]	35.7	3.27	4.88	2.99	6.91	5.66
AUUCACCUAGUUCAUCGGGUC [Fam2.2 aminoacylation ribozyme variant]	0.49	0.996	0.906	1.17	0.903	0.582
AUUCACCUAGUUCAUUGGGUG [Fam2.2 aminoacylation ribozyme variant]	18.9	1.85	2.54	1.62	3.47	2.83
AUUCACCUAGUUCUUCGGGUG [Fam2.2 aminoacylation ribozyme variant]	18.1	2.2	2.71	2.43	3.31	2.9
AUUCACCUAGUUGAUCGGGUG [Fam2.2 aminoacylation ribozyme variant]	23.9	2.5	3.66	2.79	4.3	4.26
AUUCACCUAUGUCUUCGGGUG [Fam2.2 aminoacylation ribozyme variant]	14.7	2.11	2.42	2.02	2.67	2.35
AUUCACCUCGAUCAUCGGGUG [Fam2.2 aminoacylation ribozyme variant]	39.4	3.11	4.77	3.18	5.94	3.99
AUUCACCUCGGACAUCGGGUG [Fam2.2 aminoacylation ribozyme variant]	40.1	3.09	4.76	4.74	6.78	5.08
AUUCACCUCGGUAAUCGGGUG [Fam2.2 aminoacylation ribozyme variant]	31.8	4.01	4.55	3.32	6.13	4.41
